Measurements: PMC9976893, “Dynamic states of eIF6 and SDS variants modulate interactions with uL14 of the 60S ribosomal subunit” (Nucleic Acids Research, 2023)

B1: uL14 peptide (aa 121-140) with S138 to A substitution (peptide)
peptide: VAKECADLWPRIASNAGAIA
notes: also called site-specific mutant peptide S138
B2: uL14 peptide (aa 121-140) with alanine substitution of D127 (peptide)
peptide: VAKECAALWPRIASNAGSIA
notes: also called site-specific mutant peptide D127
B3: uL14 peptide (aa 121-140) with alanine substitution of N135 (peptide)
peptide: VAKECADLWPRIASAAGSIA
notes: also called site-specific mutant peptide N135
B4: uL14 peptide (aa 121-140) with alanine substitution of R131 (peptide)
peptide: VAKECADLWPAIASNAGSIA
notes: also called site-specific mutant peptide R131

What follows are binders tested against recombinant full-length human eIF6 (human, UniProt P56537 1-245) (assay: SPR; eIF6 immobilised on a CM5 chip by NHS/EDC chemistry (4913 RU); peptides injected at 0-500 μM (1:2 dilutions) in 20 mM HEPES pH 7.4, 150 mM NaCl, 0.01% BSA, 0.002% Tween 20; 25 μl/min; BIAcore S200; profiles did not obey a 1:1 model). Conditions: both partners purified.

Percent reduction of binding against the uL14-WT peptide at 0.5 mM, ~50%:
B1
B2
B3
B4
